Results on 26 sequences are retold here after the supplement of paper PMC12764529.

± gives the half width of the 95% confidence interval.

Series [1] is described as follows: folding stability dG unfold from trypsin proteolysis; higher = more stable. An outline of the steps:
(§1)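 Mini-proteins designed to be under 80 residues and free of cysteine were carried in a PA-tagged cDNA display construct and digested with trypsin and with chymotrypsin. Each protease was applied at 11 threefold-diluted concentrations, alongside a no-protease condition, before sequencing. K50 came from Bayesian fitting of the sequencing counts, and unfolding free energy was obtained by comparing it with a sequence-predicted unfolded-state K50 and a shared folded-state K50, for each protease separately or for both together. Designs were retained only if their AlphaFold2 dimer inter-PAE exceeded 15.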

The nature of series [2]: folding stability dG unfold from chymotrypsin proteolysis; higher = more stable. An outline of the steps: as §1
A short description of series [3]: folding stability dG unfold (combined trypsin and chymotrypsin); higher = more stable. An outline of the steps: as §1

Take “SAGGSAKTVSIWIPDDLPNMPIEELIKEVMKAFPPGDEIKDIDVEPWPNGGYMYTFTVNGKEVIIWSAGGSA [r15_451_TrROS]”: the “folding stability dG unfold” value worked out at 1.29 ± 0.043 kcal/mol in series [1], 1.93 ± 0.1 kcal/mol in series [2] and 1.78 ± 0.17 kcal/mol in series [3].
As for “SAGGSAKVIVEELPDGSIKIYFPETGAVIVLNPETGEAVVFVNPKKKNNEPPSLDDVLKAAKEALGSAGGSA [r15_735_TrMRF]”, the “folding stability dG unfold” value in series [1] came to 0.413 ± 0.041 kcal/mol; in series [2], 1.6 ± 0.019 kcal/mol; in series [3], 1.28 ± 0.063 kcal/mol.
Consider “SAGGSAKVKIEFFQMPPGGNPRDMQKKAQDKGDIFIIVNKPGWMIVITADDPEDANTIAKEILEEFSAGGSA [r15_546_TrROS]”, for which the “folding stability dG unfold” value in series [1] is 0.735 ± 0.086 kcal/mol; in series [2], 1.08 ± 0.11 kcal/mol; in series [3] it was 0.954 ± 0.092 kcal/mol.
On the same counts, the results for “SAGGSAKVKIEVSIEVSEDGTITITVRITNENGEELTVTITIKLPPAPTVVYDSEEERKKALEALASAGGSA [r15_1018_TrROS_Hall]” are 2.9 ± 0.14 kcal/mol, 2.2 ± 0.19 kcal/mol and 2.38 ± 0.26 kcal/mol.
On the same counts, the results for “SAGGSAKVKIYLIKLPPNGNPLEVIKKVKEKGGNAIIVSGPGLHAVIEADEPEEAAKKAKEILEKLSAGGSA [r15_546_TrMRF]” are 0.361 ± 0.1 kcal/mol, 0.121 ± 0.2 kcal/mol and 0.292 ± 0.097 kcal/mol.
With “SAGGSAKVTIDTDNGIIKIEVGGKLIAEIEIPPGFPGGIYLEYEPNPPTLKFYIYTKNGPVYINDISAGGSA [r2_399_TrMRF]”, the “folding stability dG unfold” value in series [1] worked out at 3.5 ± 0.43 kcal/mol; in series [2], 3.96 ± 0.17 kcal/mol; in series [3], 3.69 ± 0.32 kcal/mol.
On the same counts, the results for “SAGGSAKVVEIELVEVRRNANGERIVRVRIKLPNGEERTIEMSEEELKELLAKLPPNVEIVAIEEVSAGGSA [r15_339_TrROS_Hall]” are 1.42 ± 0.077 kcal/mol, 1.76 ± 0.043 kcal/mol and 1.56 ± 0.15 kcal/mol.
In the same order, the values of “SAGGSAKWLPAEELADELADTLMQRHGYEIKNVDVEVIDPDEGYIRVNIEYEHPGGRHKHDIIIPVSAGGSA [r15_32_TrROS]” are 0.1 ± 0.18 kcal/mol, 0.851 ± 0.092 kcal/mol and 0.662 ± 0.17 kcal/mol.
On the same counts, the results for “SAGGSALENLEENEYIVKIEIEKKNKKKIEIVIAGKPEKIKEIEKELKKKGFKILKIEPKKVKDVLSAGGSA [r15_640_TrMRF]” are 1.45 ± 0.054 kcal/mol, 1.59 ± 0.066 kcal/mol and 1.56 ± 0.1 kcal/mol.
For the sequence “SAGGSALKIMVEPDPEDGTVRVWFMIPNPENGEEFMVQAEIDPNGKIEDVEVYPNGNMIWITFKLPSAGGSA [r15_557_TrROS]”, the “folding stability dG unfold” value worked out at 2.4 ± 0.061 kcal/mol in series [1], 3.36 ± 0.037 kcal/mol in series [2] and 2.96 ± 0.087 kcal/mol in series [3].
On the same counts, the results for “SAGGSALKIPSGKKYTVVVKDPNKPVEYVADVIERHPDSILIEVKDPNSSKTKKITVPTNVITIDLSAGGSA [r15_381_JUSTAS]” are -0.095 ± 0.15 kcal/mol, 0.684 ± 0.16 kcal/mol and 0.464 ± 0.19 kcal/mol.
In the same order, the values of “SAGGSALPEDATVKVEVTVVTLVYDPETGGFYLKVAKVEKEIRFDPKNGKLEVKVKKVEVKVFKLGSAGGSA [r15_517_TrMRF]” are 2.96 ± 0.21 kcal/mol, 4.41 ± 0.17 kcal/mol and 4.19 ± 0.33 kcal/mol.
On the same counts, the results for “SAGGSALPPGQEVEITIMIMVMIYNPENGRMWMVMASVEIEIRVDPKNGKLEIKIKKISISIFPMDSAGGSA [r15_517_TrROS]” are 4.23 ± 0.72 kcal/mol, 5.8 ± 0.52 kcal/mol and above 6 kcal/mol.
In the case of “SAGGSALPPHAVRVLVVTATDTDPGAAAARIAEEFRRKYPNTRVLTRPFDVPPGRPAVVAVVYVDESAGGSA [r15_916_TrMRF]”, the “folding stability dG unfold” value in series [1] worked out at 1.15 ± 0.12 kcal/mol; in series [2] it was 2.54 ± 0.11 kcal/mol; in series [3] it was 2.08 ± 0.2 kcal/mol.
On the same counts, the results for “SAGGSAMDAKVVDLSLPFTLSEDGSLTATVTIEFPDGSKVPIEIPGREDGELKLEEILAAAKEALGSAGGSA [r15_233_TrMRF]” are 0.553 ± 0.093 kcal/mol, 0.27 ± 0.069 kcal/mol and 0.478 ± 0.14 kcal/mol.
In the same order, the values of “SAGGSAMDLKIKKKERDPPNGTKKLTVEVPGWEVEINIERNPDGPYKIEIYAPNPAAKNAIKEFIKSAGGSA [r15_42_TrROS]” are -0.275 ± 0.26 kcal/mol, 0.488 ± 0.18 kcal/mol and 0.324 ± 0.2 kcal/mol.
In the same order, the values of “SAGGSAMDPSKLVRKKVRFRVVDPNGKPLGEIDIEVEFPGGVSEEEAEELLRELIAALAPPAGVEGSAGGSA [r15_310_TrMRF]” are 1.52 ± 0.022 kcal/mol, 3.023 ± 0.023 kcal/mol and 2.73 ± 0.071 kcal/mol.
“SAGGSAMEEEKPPKVKVRITVELEDGEKLEIEFETKEEAEEAAEALAKELEEKTGLKIKKIEVEEVSAGGSA [r15_140_TrROS_Hall]”: the figures for the “folding stability dG unfold” value in series [1], in series [2] and in series [3] were 2.77 ± 0.11 kcal/mol, 2.96 ± 0.13 kcal/mol and 2.81 ± 0.23 kcal/mol, respectively.
On the same counts, the results for “SAGGSAMEIDIDPEKNEIRIYNPWNGQPHPFTIESIEPIDPDNKYFKFKIKYPDTGKEMPFMVQIDSAGGSA [r15_209_TrROS]” are 0.57 ± 0.042 kcal/mol, 1.4 ± 0.15 kcal/mol and 1.08 ± 0.12 kcal/mol.
In the case of “SAGGSAMEIKTLETKTVKTEKLPDGSTKVTTTYKTVDPSGGKTSNYIKTTLYAPDGKKTSTEVKEKSAGGSA [r15_758_JUSTAS]”, the “folding stability dG unfold” value in series [1] stood at 0.355 ± 0.048 kcal/mol; in series [2] it was 1.03 ± 0.098 kcal/mol; in series [3], 0.773 ± 0.1 kcal/mol.
In the same order, the values of “SAGGSAMEKLKEIPGIERIEVKEDGKIIIHVKMSEEERKKLAEALRKEGKVKIEVVPVEVEEEEEESAGGSA [r15_554_TrROS_Hall]” are 2.83 ± 0.12 kcal/mol, 2.03 ± 0.072 kcal/mol and 2.3 ± 0.11 kcal/mol.
On the same counts, the results for “SAGGSAMFYLLKVELPDGKVLEIRIEATPEEKEEFVEKIKSHPEVKSVELEPISKEEAEELGFEEISAGGSA [r15_39_TrMRF]” are 2.62 ± 0.12 kcal/mol, 3.274 ± 0.025 kcal/mol and 3.08 ± 0.12 kcal/mol.
On the same counts, the results for “SAGGSAMGMRPVRREFTGSGMRITVEVVESTSIPTAEIRVLDPEGRLLRERRLPAEEVEREIARLLSAGGSA [r15_940_JUSTAS]” are 1.34 ± 0.069 kcal/mol, 1.58 ± 0.092 kcal/mol and 1.55 ± 0.096 kcal/mol.
As for “SAGGSAMIEIEIVKPNASPEEAEKLEKEVREKLLEEGVPEEVVKEVNIKVIVKPVKKDKNNNPILESAGGSA [r15_684_JUSTAS]”, the “folding stability dG unfold” value is -0.215 ± 0.15 kcal/mol in series [1], 0.977 ± 0.19 kcal/mol in series [2] and 0.811 ± 0.2 kcal/mol in series [3].
On the same counts, the results for “SAGGSAMIEIKVEVNGKTYRITIEKNEDGTLTLTVYDEKTGKKTEIEIPLENLEELKKLNVKRIEISAGGSA [r15_629_TrROS_Hall]” are 1.78 ± 0.077 kcal/mol, 3.54 ± 0.036 kcal/mol and 3.09 ± 0.12 kcal/mol.
On the same counts, the results for “SAGGSAMIKTSYDPNGKTIYTIPETGAVITVDPSTGKVTVEVDPESQANNPLPEEEVKKLAEEVLKSAGGSA [r15_735_JUSTAS]” are 0.481 ± 0.049 kcal/mol, 1.34 ± 0.018 kcal/mol and 1.1 ± 0.043 kcal/mol.
